In publication PMC10794523:

Molecular target: T1, Sif (Lmo0946-His6) (Listeria monocytogenes EGD-e) (UniProt Q8Y8F8)
T1 sequence: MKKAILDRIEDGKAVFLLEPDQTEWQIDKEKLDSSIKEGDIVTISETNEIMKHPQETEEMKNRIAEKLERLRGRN
Test: EMSA
Conditions: EMSA 37 C 30 min, 4.2% native PAGE, ethidium bromide stain; binding buffer not stated (protein dialyzed in 20 mM Tris-HCl pH 8.0, 150 mM NaCl, 1% glycerol)

| Sequence | binding |
| --- | --- |
| GCGGTATGTTTCCACTGTCGCTGTAATACCTGATTGTTCTTTAGAAAGGTCGCGTAGTCGCTTTGGATCAGATACTACATCTGGATCACTTAGTAGTTCATTTAGTTCATCATAACGGTCTTCCACCGCCTGTAATCGATCATACATTGTATTCCAACACCTCTTTAACTTATTTTATTGGTGGATTGGCATGACATTTGCGACACACAGGGTAATAGTGGTCATTTCCGCCAATCATAATTTGTTCACCTGTATAAACTGGTTTTCCTTTGTCATCAACGCGCAG (double strand) [prfA promoter region] | no binding |
| AGCGAATTAGCTCAAGTCCTCCATACCCCGTCGCGCCAATGATTGAAACTTTCATCCTAACCCCTCCCCGTTAATTATTAAATGATACTTTTCATTATAATGATGTATATTTATAATGTCAAATGGTTTTTTATTAATATTTAAAACTATTTTATGCATTTTAAGTTATTTATTATGTATATAATATACAAAAAACCGTTTATCCTTTTCTAGGATAAACGGTTAATCTTAAAATAAATCAGCGAACTCATCTTTCACTTGCGCAGTTTCCGCTAC (double strand) [argC promoter region] | no binding |
